Measured values reported in article PMC5669894.

Legend:
[1] = molecular target: C-terminal SH3 domain of the growth factor receptor-bound protein 2 (Grb2) (UniProt P62993); assay: stopped-flow binding kinetics (intrinsic fluorescence); pseudo-first order; Grb2 SH3C constant at 0.5 μM, Gab2 503-524 peptide 1-10 μM (1-12 μM for P519A); 10°C; 25mM HEPES, 100mM potassium acetate, pH 7.5; apparent association and dissociation rate constants
[2] = molecular target: C-terminal SH3 domain of the growth factor receptor-bound protein 2 (Grb2) (UniProt P62993); assay: stopped-flow displacement kinetics (intrinsic fluorescence); pre-incubated complex of wild type Grb2 SH3C (10 μM) and Gab2 503-524 (10 μM) mixed with excess Grb2 SH3C W35Y/W36Y (100 μM and 200 μM); 25°C; 25mM HEPES, 100mM potassium acetate, pH 7.5

Chain of Gab2 503-524 peptide, wild type (Q9UQC2 503-524): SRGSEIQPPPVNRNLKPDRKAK

Gab2 503-524 peptide, variant P510A was tested, and the Kd [1] was 2500 nM.

Gab2 503-524 peptide, variant P512A was tested, and the Kd [1] was 2500 nM.

Gab2 503-524 peptide, variant P519A gave a Kd [1] of 12000 nM.

With Gab2 503-524 peptide, wild type the koff [1] was 53 s⁻¹, the kon [1] was 4.3e+07 M⁻¹ s⁻¹ and the koff [2] was 350 s⁻¹.
